This note sets out measurements from patent publication US20060167229A1, “Biologically active peptide conjugates” (priority 2002, published 2006).

Holding throughout (format): in vivo, BALB/c mice
One test concerns anti-SRBC antibody. In words: Sheep Red Blood Cell (SRBC) hemolysis test, antibody formation. The conditions noted are these: healthy mice, SRBC day 12 (IFN-γ, IL-2 3×10^5 IU/kg/day), saline 32 ± 7. The method, boiled down: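 Antibody formation was read as haemolysis: 500-fold diluted serum, collected on day 16 after intraperitoneal SRBC (0.2 ml, day 12), was mixed with 2% SRBC plus complement for 10 min at 37° C. Supernatant haemoglobin measured with Drabkin reagent at OD540, indexed against a reference SRBC lysate ×500.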

The next test concerns spleen. Put plainly: Immunity organ weight test, spleen index. The conditions noted are these: healthy mice, saline 0.53 ± 0.05. As to the method:
(§1) One day after the last test substance administration (day 16), the liver, spleen, and thymus gland were separated and blotted dry with filter paper and weighed. The phagocytosis index α was calculated as below: α=(^3√{square root over ( )}K)(W÷WLS)
Spleen index (%)=(spleen weight/body weight)×100%

Another test relates to mononuclear phagocyte. Put plainly: Carbon particle clearance test, phagocytosis function. The arrangement: key to X ± SD (phagocytotic index): α = cube root of K × (body weight ÷ liver+spleen weight). The conditions noted are these: healthy mice, saline 5.1 ± 0.6. The method, boiled down: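 Clearance index K came from OD680 of blood sampled 1 and 5 min after tail-vein India ink ([…], diluted 5×), given on day 16. Phagocytic index α combined K with liver, spleen […] weights taken the same day.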

The test system of another test is thymus gland. Put plainly: Immunity organ weight test, thymus gland index. The conditions noted are these: healthy mice, saline 0.12 ± 0.02. The procedure: as §1
Thymus gland index (%)=(thymus weight/body weight)×100%

The subject of another test is NK cell. Put plainly: NK cell cytotoxicity activity test (spleen cells of treated mice against YAC-1 target cells, MTT). The note with it: healthy mice. The method, boiled down: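 YAC-1 target cells (1×10^5/ml) mixed with splenocytes (4×10^6/ml) from mice given test substances i.p. daily for 15 days (10 mice/group). Effector-only and target-only wells served as controls. MTT added at 1 mg/ml for 4 h at 37 °C; absorbance read at 570/630 nm.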

The mark [1] stands for this setting: peptide 0.5 μg/kg/day i.p. 15 days (IFN-γ, IL-2 3×10^5 IU/kg/day).
The mark [2] stands for this setting: peptide 5 μg/kg/day i.p. 15 days (IFN-γ, IL-2 3×10^5 IU/kg/day).
The mark [3] stands for this setting: peptide 50 μg/kg/day i.p. 15 days (IFN-γ, IL-2 3×10^5 IU/kg/day).
[4] abbreviates: peptide 500 μg/kg/day i.p. 15 days (IFN-γ, IL-2 3×10^5 IU/kg/day).

B1: IFN-γ: recombinant mouse IFN-γ (rmIFN-γ), Beijing Biotech Inc.; positive control (protein, UniProt P01580 23-155, looked up)
Interferon gamma: HGTVIESLESLNNYFNSSGIDVEEKSLFLDIWRNWQKDGDMKILQSQIISFYLRLFEVLKDNQAISNNISVIESHLITTFFSNSKAKKDAFMSIAKFEVNNPQVQRQAFNELIRVVHQLLPESSLRKRKRSRC
Turning to B1, the “anti-SRBC antibody formation, X ± SD (Unit)” value with anti-SRBC antibody (peptide 0.5 μg/kg/day i.p. 15 days), in the test with anti-SRBC antibody (peptide 5 μg/kg/day i.p. 15 days), in the test on anti-SRBC antibody (peptide 50 μg/kg/day i.p. 15 days) and in the test on anti-SRBC antibody (peptide 500 μg/kg/day i.p. 15 days) was 37 ± 10 Unit throughout. The “weight of spleen (spleen index), X ± SD (%)” value in the test with spleen (Table 28, peptide 5 μg/kg/day (so in the source) i.p. 15 days (IFN-γ, IL-2 3×10^5 IU/kg/day)) is reported as 0.50 ± 0.04%; with spleen (setting [1]) it was 0.50 ± 0.04%. Further, the “X ± SD (phagocytotic index)” value in the test with mononuclear phagocyte (setting [1]), with mononuclear phagocyte (setting [2]), in the test on mononuclear phagocyte (setting [3]) and in the test with mononuclear phagocyte (setting [4]) was 6.4 ± 0.9 each time. The “weight of thymus gland (thymus gland index), X ± SD (%)” value in the test with thymus gland (setting [1]), with thymus gland (setting [2]), in the test on thymus gland (setting [3]) and in the test with thymus gland (setting [4]) was 0.15 ± 0.04% each time. Besides, the “NK cell cytotoxic activity, X ± SD (%)” value in the test with NK cell (peptide 0.5 μg/kg/day i.p. 15 days (IFN-γ, IL-2 3×10^5 IU/kg/day), saline 58 ± 7) amounted to 72 ± 9 %; with NK cell (peptide 5 μg/kg/day i.p. 15 days (IFN-γ, IL-2 3×10^5 IU/kg/day), saline 60 ± 9), 80 ± 8 %; in the test with NK cell (peptide 50 μg/kg/day i.p. 15 days (IFN-γ, IL-2 3×10^5 IU/kg/day), saline 56 ± 8) it was 73 ± 10 %; in the test with NK cell (peptide 500 μg/kg/day i.p. 15 days (IFN-γ, IL-2 3×10^5 IU/kg/day), saline 63 ± 9), 77 ± 8 %.
